Consider 2 substances from PMC2783965.

Where two headings read alike, the source gives them in different places.

Common to all, as to assay: FRET or BRET
For orientation: In BRET a luciferase serves as donor, and the signal depends on an acceptor being close.

The target in assay [1] is 43S pre-initiation complex without eIF1 (40S•eIF1A-TAMRA•TC) (S. cerevisiae) (UniProt P38912).
Assay [2] has the same target. This is another data set of the same source.
Assay [3] has the same target. The source holds these as a separate data set.
Assay [4] has the same target. This is another data set of the same source.
Assay [5] shares this target. This is another data set of the same source.

Chain of UniProt P38912 (P38912 whole entry, looked up, one chain of several): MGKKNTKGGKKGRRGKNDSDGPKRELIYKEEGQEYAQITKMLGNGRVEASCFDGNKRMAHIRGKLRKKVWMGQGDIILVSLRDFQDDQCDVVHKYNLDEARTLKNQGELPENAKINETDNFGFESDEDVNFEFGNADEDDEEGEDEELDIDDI

For the substance “fluorescein-labeled G107K eIF1 (from UniProt P32911 1-108) (natural protein)”, the kobs of eIF1 dissociation (slow phase) in assay [1] is 0.08 s⁻¹; in assay [2], 0.1 s⁻¹.

For the substance “fluorescein-labeled WT eIF1 (from UniProt P32911 1-108) (natural protein)”, the kobs of eIF1 dissociation (slow phase) in assay [1] came to 0.13 s⁻¹; in assay [3], 0.14 s⁻¹; in assay [4], 0.56 s⁻¹; in assay [5], 0.4 s⁻¹; in assay [2] it was 0.4 s⁻¹.
